± gives the uncertainty stated by the source.
Assay: protein stability index of a GFP-peptide fusion (yeast GPS) (PSI 1-4); higher = more stable; sorted into four equal gates, so the index is relative within each strain
Summary of the method: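 Tiled 17-residue peptides from yeast proteins were fused downstream of GFP on a plasmid that also expresses Cherry, and the pooled library was carried in yeast. Mid-log cultures grown in leucine-free medium were sorted into four equal gates by GFP/Cherry fluorescence ratio. Plasmids from each gate were PCR-amplified and Illumina-sequenced, and reads were assigned to strains by barcodes. Each peptide's protein stability index is the sum, over gates, of the gate's read frequency multiplied by its gate number.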

| Sequence | protein stability index (doa10∆) | protein stability index (pdr5∆) | protein stability index (san1∆) | protein stability index (ubr1∆) |
| --- | --- | --- | --- | --- |
| FIAVGQILPESQWNDSS [SIR3] | 2.27 ± 0.16 | 3.08 ± 0.14 | 2.61 ± 0.24 | 2.71 ± 0.097 |
| KKASKVTVDADIDDILK [ISW2] | 2.75 ± 0.081 | 3.18 ± 0.065 | 3 ± 0.058 | 3.1 ± 0.046 |
| VVVVGTVTDDARIFEFP [RPL18A] | 2.75 ± 0.14 | 2.9 ± 0.097 | 2.6 ± 0.15 | 2.79 ± 0.092 |
| TINKAVQVKVLGKYEFS [ESC2] | 1.48 ± 0.077 | 1.37 ± 0.092 | 1.89 ± 0.18 | 2 ± 0.076 |
| PDFEKLLPFVKGNVGFV [RPP0] |  |  |  | 1.89 ± 0.19 |
| VLVLHGDKDTRADIVRN [ISW2] | 3.02 ± 0.063 | 3.17 ± 0.063 | 2.9 ± 0.078 | 3.06 ± 0.054 |
| RNSTRSSGFNEDIVGAL [REC8] |  | 3.58 ± 0.21 |  |  |
| SFQKNSLHNTEKIMENK [AAR2] | 3.08 ± 0.057 | 3.22 ± 0.066 | 2.93 ± 0.042 | 2.96 ± 0.049 |
| LNIGLGAVGLKDLTLCR [YCS4] | 2.3 ± 0.079 | 2.41 ± 0.1 | 2.15 ± 0.095 | 2.53 ± 0.056 |
| RRVPKELAVENPLAKTM [SEC65] | 2.99 ± 0.052 | 2.93 ± 0.042 | 2.47 ± 0.054 | 1.69 ± 0.026 |
| GNLSKREIQIDAVLKIF [SRB8] | 2.75 ± 0.065 | 2.83 ± 0.063 | 2.99 ± 0.063 | 2.68 ± 0.049 |
| LADDLITKMLASDESLL [RPN2] | 1.94 ± 0.11 | 2.29 ± 0.14 | 1.86 ± 0.14 |  |
| TSLKKIKDEIDDPFTKI [SWI1] | 3.41 ± 0.17 | 3.24 ± 0.22 |  | 3.49 ± 0.13 |
| YEEFRDVAIENNTLSRY [RRP43] | 3.24 ± 0.042 | 3.25 ± 0.043 | 3.178 ± 0.029 | 3.2 ± 0.035 |
| ELVKAHLGERAASVIGM [RPC82] | 2.55 ± 0.29 | 2.77 ± 0.28 | 2.57 ± 0.22 | 2.52 ± 0.086 |
| LPVKEFQIIDTLLPGLQ [RPS2] | 2.35 ± 0.15 | 1.83 ± 0.059 | 1.95 ± 0.089 | 1.5 ± 0.063 |
| FLIIVPKSTLDNWRREF [ISW2] |  | 2.37 ± 0.27 | 1.94 ± 0.16 | 1.99 ± 0.22 |
| ISALTQTEIKDIILGQN [PRP8] | 2.1 ± 0.054 | 2.51 ± 0.061 | 1.92 ± 0.077 | 1.99 ± 0.052 |
| EIRAKEYKTSSDSLGPD [SRB2] | 2.81 ± 0.087 | 2.87 ± 0.058 | 3.04 ± 0.053 | 2.98 ± 0.06 |
| LETILEEFRNLAALNVW [SSN2] | 2.9 ± 0.11 | 2.98 ± 0.1 | 2.52 ± 0.11 | 3.32 ± 0.057 |
| YQEDIFVSESPSFVKSG [ISW2] | 2.85 ± 0.098 | 2.47 ± 0.077 | 2.48 ± 0.13 | 2.73 ± 0.045 |
| VYINPSGEKIDFLLSDW [BRR2] | 1.61 ± 0.1 | 2.49 ± 0.097 | 3.22 ± 0.12 | 2.38 ± 0.073 |
| VILRKISMLVTQLQRGG [CSI1] | 1.31 ± 0.059 | 1.57 ± 0.056 | 1.55 ± 0.098 | 1.3 ± 0.045 |
| YMVSRAIRDGVIEAKIN [RPN3] |  | 3.28 ± 0.17 | 2.95 ± 0.12 | 2.8 ± 0.15 |
| PETCLFVSYFGKQIKST [YML103C/NUP188] | 2.61 ± 0.051 | 2.45 ± 0.039 | 2.27 ± 0.062 | 2.64 ± 0.037 |
| DKINQLSVVKYLLASLK [RPN9] | 2.02 ± 0.16 | 2.15 ± 0.2 |  |  |
| YGVSFFTIQSFVSSLSN [BRR2] | 1.47 ± 0.052 | 1.32 ± 0.058 | 1.18 ± 0.087 | 1.42 ± 0.054 |
| SHKTTKEDTVSWFKQKY [RPL11A] | 1.8 ± 0.064 | 1.56 ± 0.054 | 1.36 ± 0.12 | 1.53 ± 0.064 |

| Sequence | protein stability index (doa10∆) | protein stability index (pdr5∆) | protein stability index (san1∆) | protein stability index (ubr1∆) |
| --- | --- | --- | --- | --- |
| WIKFDQELYNELCKKNE [RPN7] | 3.12 ± 0.13 | 3.05 ± 0.28 | 2.79 ± 0.17 | 3.1 ± 0.17 |
| PIVIIFRALGIIPDGEI [RPB2] | 1.92 ± 0.048 | 1.79 ± 0.056 | 2.05 ± 0.063 | 2.41 ± 0.039 |
| TYDENDDFFKELAKEAK [ESC2] | 3.01 ± 0.11 | 2.83 ± 0.08 | 2.65 ± 0.073 | 3.08 ± 0.075 |
| IPKQLLDDEKIFSQTTN [YJL039C/NUP192] | 2.55 ± 0.077 | 2.77 ± 0.051 | 2.69 ± 0.059 | 3.1 ± 0.052 |
| PLSNEVFEISENNSDSN [SWI1] | 3 ± 0.063 | 3.04 ± 0.068 | 2.84 ± 0.084 | 2.98 ± 0.058 |
| KWQTLIEANVTVKTSDD [RPS1A] | 1.42 ± 0.05 | 1.62 ± 0.044 | 1.61 ± 0.078 | 1.67 ± 0.037 |
| RPDIVHTVFTSVNKNKR [RPL4A] | 1.26 ± 0.088 | 1.46 ± 0.11 | 1.24 ± 0.17 | 1.4 ± 0.12 |
| ELSDSWRAHDSSIVAID [YGL100W/SEH1] | 2.9 ± 0.084 | 2.72 ± 0.11 | 3.24 ± 0.054 | 2.8 ± 0.08 |
| FPEENIIDAKTRNEQTT [MCD1] | 3.29 ± 0.09 | 3.16 ± 0.057 | 3.19 ± 0.052 | 3.08 ± 0.054 |
| DHLIIEPEEEKSKREEE [ARP9] | 3.15 ± 0.27 |  |  | 3.2 ± 0.17 |
| VCKKADVDLHKRAGELT [RPS18A] | 3.23 ± 0.15 | 3.31 ± 0.12 | 3.39 ± 0.2 | 3.46 ± 0.11 |
| LREFRITHNTNITDNLF [GRR1] | 1.32 ± 0.15 | 1.28 ± 0.15 |  | 2.07 ± 0.11 |
| QSQPQEKFSEKMLKIWT [ECM29] | 3.57 ± 0.26 | 3.08 ± 0.15 | 2.9 ± 0.21 | 3.03 ± 0.2 |
| NFGGGNNTTPSSTGNAN [YJL041W/NSP1] | 2.05 ± 0.058 | 2.02 ± 0.055 | 1.73 ± 0.079 | 3.06 ± 0.071 |
| GRIPLHWSVSFQAHEIT [NAS6] | 2.87 ± 0.057 | 2.84 ± 0.056 | 2.48 ± 0.073 | 2.69 ± 0.037 |
| IAGHDEFNGFSLYQVDP [PRE8] | 3.15 ± 0.09 | 3.31 ± 0.15 | 3.21 ± 0.11 | 2.94 ± 0.095 |
| VNLEDNTQDLLLLLSLF [YML103C/NUP188] | 1.68 ± 0.13 | 2.7 ± 0.12 | 2.41 ± 0.14 | 2.47 ± 0.091 |
| RHLVNRGREEAASFKKL [PRE10] | 3.07 ± 0.059 | 3.2 ± 0.1 | 3 ± 0.084 | 2.85 ± 0.089 |
| VESPDKNVRFRVLQLLA [YCG1] | 1.09 ± 0.098 | 1.4 ± 0.12 | 1.18 ± 0.13 | 1.65 ± 0.13 |
| EDLKNFIFQIIEITNSN [SRB8] | 1.96 ± 0.075 | 2.1 ± 0.056 | 2.23 ± 0.086 | 1.79 ± 0.05 |
| NEEINKKSLEEDDEFED [SEM1] |  | 3.33 ± 0.11 | 2.9 ± 0.25 |  |
| SSLVRSCGEEEFFSTNW [REC8] | 3.49 ± 0.23 | 3.52 ± 0.18 |  | 3.18 ± 0.2 |
| EFLFESLKNDLPQFRSS [ECM29] | 2.93 ± 0.087 | 3.1 ± 0.092 | 3.28 ± 0.082 | 3 ± 0.11 |
| RAHGRINKYESSPSHIE [RPL17A] | 2.9 ± 0.07 | 3.4 ± 0.077 | 2.99 ± 0.08 | 3.17 ± 0.061 |
| SLKGLQSKLKDVVEYLD [RPN8] | 2.92 ± 0.083 | 2.27 ± 0.055 | 2.71 ± 0.069 | 2.48 ± 0.048 |
| VEKGTPLGKILLKGDNI [SME1] | 3.58 ± 0.088 | 3.43 ± 0.093 | 3.38 ± 0.14 | 3.59 ± 0.078 |
| EILVEESGLRPVSLLNS [PCI8] | 2.63 ± 0.1 | 3.21 ± 0.1 | 3.16 ± 0.063 | 2.54 ± 0.087 |
